# Measured values taken from US20110318377A1.
# Target: Tat/FLAG (wild type HIV-1 Tat with FLAG tag, expressed in cells) (HIV-1)
# Assay: cell-based or functional assay
substance,measurement,value
"endogenous Set9 (in Jurkat A2, HEK293 and HeLa cells) (from UniProt Q8WTS6 1-366)",decrease in Tat transactivation of the HIV LTR (luciferase) in HeLa cells after Set9 siRNA,50 percent
